According to patent US20190248902A1 (published 2019):
Residue numbers refer to the chain shown, from its start. One block for each binder: values may come before it.

Assays:
[1] = biological target: T1, soluble human ASGR-1 carbohydrate binding domain (CBD; amino acid residues 154-281; N-terminal 6xHis tag) (human, UniProt P07306 154-281); assay: Octet BLI, mAb on AR2G tips, 1:1 fit
T1 construct: also called ASGR-1 CBD
T1 sequence: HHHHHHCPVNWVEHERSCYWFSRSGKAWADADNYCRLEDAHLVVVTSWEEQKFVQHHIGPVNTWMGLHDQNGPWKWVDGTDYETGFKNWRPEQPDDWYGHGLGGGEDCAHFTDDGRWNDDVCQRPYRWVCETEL
Excerpt: To quantitate the binding affinity of specific antibodies for ASGR-1 (either purified from hybridoma supernatants or made recombinantly), association and dissociation rates can be measured using a ForteBio Octet instrument. […] Experimental kinetic results were globally fit to a 1:1 binding model in order to determine the association and dissociation rate constants as well as the equilibrium dissociation constant. Association and dissociation times were chosen to ensure that curvature was present during association curves and measured dissociation levels dropped at least 5% from starting levels. All Octet buffers contained 10 mM Tris (pH7.5), 150 mM NaCl, 1 mM CaCl₂), 0.10 mg/ml BSA and 0.13% Triton X-100. Octet assays were run at 27° C. Because this assay only measures binding to the ASGR-1 CBD, antibodies that recognize epitopes partially or entirely outside the CBD and/or recognize ASGR-1 in the context of a native ASGR complex, for example, as could occur on cell membranes, may not score as positive in this assay.

[2] = biological target: T2, human ASGR-1 (wild type) (human, UniProt P07306 1-291); assay: flow cytometry, CHO-S:huASGR-1 cells, 11-point titration
T2 construct: also called wt ASGR1; huASGR-1
T2 sequence: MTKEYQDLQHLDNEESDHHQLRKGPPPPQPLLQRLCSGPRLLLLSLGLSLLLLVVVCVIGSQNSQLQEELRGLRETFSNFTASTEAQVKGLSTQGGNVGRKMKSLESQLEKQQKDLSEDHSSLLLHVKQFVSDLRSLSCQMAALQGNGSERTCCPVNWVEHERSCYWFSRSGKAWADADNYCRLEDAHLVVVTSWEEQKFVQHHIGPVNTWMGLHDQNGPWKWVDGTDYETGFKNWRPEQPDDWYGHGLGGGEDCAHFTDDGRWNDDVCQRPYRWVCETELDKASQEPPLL
Protocol: CHO—S stable high-expressing cell line were developed for both human ASGR-1 as well as mouse ASGR-1. A typical 384 well plate multiplex flow cytometery-based cell binding method is described as followed: Parental CHO—S cells and CHO—S:huASGR-1 cells were respectively labeled using a CellTrace CFSE Cell Proliferation Kit (ThermoFisher Catalog #C34554) and CellTrace Violet Cell Proliferation Kit (ThermoFisher Catalog#C34557) CHO—S:muASGR-1 were not labeled. 20 ul of cells at 4C were added to duplicate wells of the 384 well plate. The cells were equally mixed from all three cell lines (30K cells/well). Then 20 ul of the ASGR-1 antibodies (either purified from hybridoma supernatants or made recombinantly) were added in an 11-point dose response using a 1:2 fold serial dilution starting at 100 nM. The cells and antibodies were incubated for 30 min at 4C and then spun down and washed twice with FACS buffer containing 1 mM CaCl2. 30 ul of anti-hulgG-APC secondary antibodies were then added at a 1:1000 dilution) for 30 min at 4C and then washed once with the same buffer. 60 ul of PI (1:1000) was added and then the cells were read by a core flow cytometry facility. The cells were gated first for live cells, then for single cells and finally for the cell dyes to separate the mixed cells into the three different cell populations. Histograms of signal vs count representing the binding profile of each antibody at each antibody concentration were automatically analyzed for the median of the binding signal and then a binding graph was made with log 10 antibody concentration in nM on the X axis with […] from the duplicate wells on the Y-axis. The binding curves were fit with a standard four parameter sigmoidal binding curve and EC50's reported for all graphs with full curves.

[3] = biological target: T3, human ASGR-1 mutant construct H203 (human, UniProt P07306 1-291); assay: FACS ratio: H203 normalized value / wt normalized value
T3 construct: Arg/Glu scanning: non-arginine residues were changed to arginine; Transiently expressed on CHO-S cells
T3 sequence: T2 sequence with H203R
How it was run: (§1)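 Transiently transfected CHO-S cells expressing wild-type or mutant hASGR-1 incubated with antibody at 5 ug/ml, 1 h at 4 °C; bound antibody detected by Alexa Fluor 647 anti-Fc plus 7-AAD, by flow cytometry. Binding normalized to expression using an unaffected antibody (65C12), then to wild type; hits defined as >3× IQR above third quartile.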

[4] = biological target: T3, human ASGR-1 mutant construct H203; assay: FACS, transfected CHO-S cells, mAb 5 ug/ml
How it was run: as §1

[5] = biological target: T2, human ASGR-1 (wild type); assay: FACS, transfected CHO-S cells, mAb 5 ug/ml
How it was run: as §1

[6] = biological target: T3, human ASGR-1 mutant construct H203; assay: FACS ratio: 65C12 geomean / this mAb geomean
How it was run: (§2)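 Value is the geomean of reference antibody 65C12 divided by that of the test mAb, correcting for construct expression. Binding was measured by flow cytometry on transiently transfected CHO-S cells after 1 h at 4 °C with antibody at 5 ug/ml. Detection used an anti-Fc Alexa 647 secondary, with 7-AAD to exclude dead cells.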

[7] = biological target: T2, human ASGR-1 (wild type); assay: FACS ratio: 65C12 geomean / this mAb geomean
How it was run: as §2

Kd [1]: 4.8 nM
EC50 [2]: 1.7 nM
B1: 4H6 (antibody, V domains shown)
VH: QVQLVQSGAEVKKPGASVKVSCKASGYTFTDYYLHWVRQAPGQGLEWMGWIHPNSGGTNYAQKFQGRVTMTRDTSISTAYMGLSSLRSDDTAVYYCARDGTSSFDYWGQGTLVTVSS
VL: DIQMTQSPSSVSASVGDRVTITCRASQGISRWLAWYQQKPGKAPKLLIYGASSLQSGVPSRFSGSGSGTDFTLTISSLQPEDFAIYYCQQANSFPFTFGPGTKVDIK
notes: mAb

Normalization to wt ASGR1 Binding [3]: 0.913
FACS Binding Geomean [4]: 12500
FACS Binding Geomean [5]: 24800
Expression Normalization to mAb 65C12 [6]: 2.06
Expression Normalization to mAb 65C12 [7]: 2.26
EC50 [2]: 0.8 nM
B2: 202A3 (antibody, V domains shown)
VH: QVQLEQSGAEVKKPGASVKVSCKASGYTFTSYDINWVRQATGQGLEWLGWMNPKRGNTGYAQKFQGRVTMTRNTSISTAHMELSSLRSEDTAVYYCARGRYSREDYYYYYDMDVWGQGTTVTVSS
VL: DIQMSQSPSSLSASVGDRVTITCRASQGIRNDLGWYQQKPGKAPKRLICAASRLQSGVPSRFSGSGSGTEFTLTISSLQPEDFAIYYCLQHHDYPFTFGPGTKVDIK
notes: mAb

Kd [1]: 1.2 nM
EC50 [2]: 5.4 nM
B3: 7F4 (antibody, V domains shown)
VH: QLQLQESGPGLVKPSETLSLTCTVSGGSISRSSYYWGWIRQPPGKGLEWIGNIYYSGATYYNPSLKSRVTISVDTSTNQFSLKLSSVTAADTAVYYCARHSGSWSLDYWGQGTLVTVSS
VL: B2 VL with S5T, A25T, C49Y, R53N, I85T, H92S, D93A, F96L, P100G, D105E
notes: mAb
